The results in this text go back to patent US9657081B2, “Inhibiting peptides derived from triggering receptor expressed on myeloid cells-1 (TREM-1) TREM-like transcript 1 (TLT-1) for treatment of cardiovascular diseases” (INSERM (Institut National de la Sante et de la Recherche …, priority 2013, dated 2017).

Experiment [1] addresses T1, TREM-1 (Mus musculus, UniProt Q9JKE2).
T1 construct: endogenous in cells; host or cells: living mice (C57BL, Balb/c, ApoE-/-), in vivo
T1 sequence (Q9JKE2 21-230): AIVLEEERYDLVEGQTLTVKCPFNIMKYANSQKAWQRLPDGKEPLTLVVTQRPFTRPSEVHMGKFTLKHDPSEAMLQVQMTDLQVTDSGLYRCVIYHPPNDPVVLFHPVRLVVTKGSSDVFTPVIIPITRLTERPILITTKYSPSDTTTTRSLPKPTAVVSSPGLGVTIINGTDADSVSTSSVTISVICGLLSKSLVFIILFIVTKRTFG
In words: Atherosclerosis in ApoE-/- mouse on fat diet. As to conditions: apoE-/- mice, daily i.p. 100 μg/day, 4 weeks; vehicle 146736. In kind it is in vivo. How it is done: 12-week old male ApoE−/− mice were put on a fat diet (lipids 15%, cholesterol 1.25%, no cholate) and were treated by daily intraperitoneal injection of peptides (100 μg/day) or PBS. After 4 weeks of fat diet, mice were sacrificed for analysis.
Atherosclerotic plaques were stained using Red Oil and quantified in the aortic sinus. Using immunofluorescent staining and immunohistochemistry, we analyzed plaque composition. Finally, we explored the effects of peptide's treatment on monocyte recruitment in the atherosclerotic plaques using the pulse staining technique developed by Potteaux et al. Briefly, monocytes were labelled in vivo by retro-orbital i.v. injection of 1 μm Fluoresbrite green fluorescent plain microspheres diluted 1:4 in sterile PBS [Potteaux et al, 2011]. Fluorescent beads count in the lesions reflects monocyte recruitment.

The target in experiment [2] is T1, TREM-1. In words: Mouse myocardial infarction, leukocyte recruitment and mobilization (flow cytometry), plasma chemokines. In kind it is in vivo. How it is done: All procedures were performed on mice male C57BL/C ranging in age from 6-8 weeks. Mice were anesthetized by an intraperitoneal injection of xylazine (60 mg/kg) and fixed in supine position. The trachea was intubated and ventilated (the tidal volume was 200 μl/25 g and the respiratory rate was 120 breaths/min). After a left thoracotomy, the left coronary artery was identified and ligated with an 8-0 prolene surgical suture at 1.0 mm distal from tip of the left auricle. LAD occlusion was confirmed by a change in myocardial color from red to white in the ischemia area (Left ventricle). The chest was closed and the skin was sutured with 6-0 silk. The animals returned to their cage where they are supervised until their complete recovery.
Mice were monitored after surgery for mortality. Mice were randomized to receive or not peptides (daily ip injection for 5 days, 5 mg/kg) and monitored for survival. […] A median sternotomy was performed followed by excision of the heart and dissection of ischemic and non-ischemic areas. ARN extraction and protein extraction were then performed for RT-PCR, WB, immunohistology, and ELISA analysis.
To prepare single-cell suspensions from infarct tissue, hearts were harvested; minced with fine scissors; placed into a cocktail of collagenase I, collagenase XI, DNase I, and hyaluronidase (Sigma-Aldrich); and shaken at 37° C. for 1 h. Cells were then triturated through and centrifuged (15 min, 500 g, 4° C.).
Spleens were removed, triturated in HBSS at 4° C. with the end of a 3-ml syringe, and filtered through 70-μm nylon filters (BD). The cell suspension was centrifuged at 300 g for 10 min at 4° C. Red blood cells were lysed (Red Blood Cells Lysis solution, Miltenyi), and the splenocytes were washed with HBSS and resuspended in HBSS supplemented with 0.2% (wt/vol) BSA. Peripheral blood was drawn via cardiac puncture with citrate solution as anticoagulant, and red blood cells were lysed. Finally, bone-marrow single-cell suspensions were obtained from femurs after flushing them with 1 mL HBSS, filtering through 70-μm nylon filters and centrifugation at 300 g for 10 min at 4° C. Total viable cell numbers were determined from aliquots using a hemacytometer with Trypan blue (BioRad).
Cell suspensions were incubated in a cocktail of mAbs against CD4^+ or CD8^+ T cells (CD4- or CD8-APC, CD3ε-PE, CD45-FITC), B cells (CD19-PE, CD45-FITC), granulocytes (CD45-FITC, Ly-6G-APC), monocytes subsets (CD115-PE, Ly-6C-APC, CD45-FITC), all antibodies from Miltenyi Biotech. Reported cell numbers were calculated as the product of total living cells (total viable leukocytes per ml) and percentage of cells within selected gate, and reported per mg of tissue (heart), per organ (femur and spleen), or per mL (blood). Data were acquired on a FC500 cytometer (Beckman Coulter).
For orientation: A flow cytometer gives signals particle by particle.

For “LQEEDAGEYGCM (listed as Homo sapiens) [TLT1-LR12]”, the “atherosclerotic lesion size in the aortic sinus (Red Oil staining)” value in experiment [1] is 103318 μm^2. In addition, the peripheral blood neutrophilia result in experiment [2] (72 hours after MI) was “not observed”. Moreover, in experiment [2] (mouse MI), the “B- and CD8+-lymphocyte infiltration of infarcted myocardium” value was “reduced”; the “CD4+-cells recruitment to infarcted myocardium” value was “increased”; the “PMN infiltration of infarcted myocardium” value is on record as “blocked”.
